Literature values, collected in paper PMC5382571.
Read-outs that look alike come from different tables or passages of the source.

Columns and labels:
PCNA (Homo sapiens) [1] = biological target: PCNA (Homo sapiens) (UniProt P12004)
PCNA (Homo sapiens) [2] = biological target: PCNA (Homo sapiens) (UniProt P12004); remark: listed apart in the source

Sequence of UniProt P12004 (P12004 whole entry): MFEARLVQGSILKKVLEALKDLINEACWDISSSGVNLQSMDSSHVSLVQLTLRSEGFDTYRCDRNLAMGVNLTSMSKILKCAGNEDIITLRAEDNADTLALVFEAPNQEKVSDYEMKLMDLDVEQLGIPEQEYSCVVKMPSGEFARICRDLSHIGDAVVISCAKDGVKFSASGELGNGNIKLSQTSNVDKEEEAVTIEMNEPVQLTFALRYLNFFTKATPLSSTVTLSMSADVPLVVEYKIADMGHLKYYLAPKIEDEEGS

| Kd (PCNA (Homo sapiens) [1]) | Kd (PCNA (Homo sapiens) [2]) | Substance |
| --- | --- | --- |
| < 10 nM | – | DNA polymerase delta (from UniProt P28340) |
| – | 0.2 nM | RFC (from UniProt P35251) |
